We go through 52 sequences from the supplement of paper PMC10567573.

± gives the standard deviation.

The series in a line: protein stability index of a GFP-peptide fusion (GPS, HEK-293T) (PSI 1-6); higher = more stable.
[1] abbreviates: treatment: DMSO, c terminus: a fixed tail appended.
[2] abbreviates: treatment: MLN4924 1 uM, 8 h, c terminus: a fixed tail appended.
The mark [3] stands for this setting: treatment: DMSO, c terminus: native.
Where [4] appears, read: treatment: MLN4924 1 uM, 8 h, c terminus: native.
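Also: 24-mer peptide tiles fused after GFP, lentivirally expressed, FACS-sorted into six equal bins by GFP/DsRed ratio, decoded by Illumina sequencing, PSI is the read-weighted mean bin number.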

On to SNTRDRYGRSWESYSSCGDFHYCD [RBMY1A1], for which the protein stability index is, setting by setting: under setting [1], 2.73 ± 0.27; under setting [2], 2.91 ± 0.54.

As for TLHGVVNESTVCLMSYERRQILHL [TENT5D], the protein stability index runs as follows: under setting [1], 2.35 ± 0.54; under setting [2], 2.44 ± 0.4.

DIVWGKIHGFPWWPARVLDISLGQ [PWWP2B] registered a protein stability index under setting [1] of 2.7 ± 0.86 and a protein stability index under setting [2] of 2.38 ± 0.42.

Regarding KTTLARQLQHDFPRALIFSTDDFF [N4BP2L1], the protein stability index by setting is: under setting [1], 2.41 ± 0.28; under setting [2], 2.53 ± 0.25.

Consider VHHLPLSTEKVVQETVLVEERRVV [EPB41L3], for which the protein stability index reads like this: under setting [1], 4.3 ± 0.14; under setting [2], 4.43 ± 0.27.

Take ERRRGPAAGEQLQQQHVSCQVFPE [ATP23]: the protein stability index stood at 4.6 ± 0.21 under setting [1] and 4.72 ± 0.36 under setting [2].

Consider GHDKCVSWMCTRSGNMLGRHFFTS [WDFY1], for which the protein stability index was 2.35 ± 0.36 under setting [1] and 2.35 ± 0.18 under setting [2].

As to AALLQLVRRLQALRLEREEYVLLK [ESRRA], the protein stability index was 2.19 ± 0.37 under setting [1] and 1.95 ± 0.18 under setting [2].

For THEVMGPKKKHLDYLIQATNETNV [SNAP91], the protein stability index runs as follows: under setting [1], 3.85 ± 0.32; under setting [2], 3.69 ± 0.64.

LSNLTHVLYPVPLESYEDIHGTLH [PRAME] showed a protein stability index under setting [1] of 2.5 ± 0.3 and a protein stability index under setting [2] of 2.69 ± 0.27.

As for PSDAPHAHHPLHPHLMQEHMGTNV [HNF4A], the protein stability index runs as follows: under setting [1], 4.45 ± 0.24; under setting [2], 4.5 ± 0.1.

For the sequence CSMSATFTLNFFRSGIQFGSWGSF [CLCN6], the protein stability index is, setting by setting: under setting [1], 3.01 ± 0.57; under setting [2], 2.75 ± 0.14.

ESVTHHDYRMELAQAGTPAPTKPH [SPAG8] gave a protein stability index under setting [1] of 4.95 ± 0.26 and a protein stability index under setting [2] of 4.99 ± 0.12.

As for PRKRHREDSDVEMVEDDSRKEMTA [MLH1], the protein stability index by setting is: under setting [1], 5.43 ± 0.25; under setting [2], 5.49 ± 0.18.

As for RVAIAHYQDDPDLRFLLDQVQLGL [TSPAN10], the protein stability index under setting [1] was determined as 2.28 ± 0.25 and the protein stability index under setting [2] amounted to 2.36 ± 0.25.

Turning to QAAPGALPVSSPEPPPALPPAADA [TRIM55], the protein stability index worked out at 5.46 ± 0.15 under setting [1] and 5.37 ± 0.28 under setting [2].

Turning to ALDYLQNQRIIHRDMKPDNILLDE [STK32A], the protein stability index stood at 3.14 ± 0.17 under setting [1] and 3.47 ± 0.45 under setting [2].

Take EMSIHLSRPNGTSAMLLVTLGKVL [MED27]: the protein stability index under setting [1] worked out at 2.41 ± 0.46 and the protein stability index under setting [2] stood at 2.2 ± 0.26.

VSNDSHTWVTVKNGSGDMIFEGNS [CPXM2]: the protein stability index by setting is: under setting [1], 3.79 ± 0.16; under setting [2], 4.32 ± 0.3.

For the sequence LPEQVDIIISEPMGYMLFNERMLE [CARM1], the protein stability index was determined as 2.24 ± 0.69 under setting [1] and 2.12 ± 0.42 under setting [2].

With LCQHFEAVHSGTPVTNNLLEKCKT [SPACA9], the protein stability index runs as follows: under setting [1], 4.14 ± 0.13; under setting [2], 4.19 ± 0.17.

Consider PQGSRSPYIPPHAALCLEVTLKTA [FKBP8], for which the protein stability index is, setting by setting: under setting [1], 2.26 ± 0.33; under setting [2], 2.1 ± 0.22.

On to HFTAMVWKNTKKMGVGKASASDGS [GLIPR2], for which the protein stability index under setting [1] was found to be 3.2 ± 0.14 and the protein stability index under setting [2] came to 3.36 ± 0.36.

For the sequence EACGRCEEVPEAYVDIHTGLSGSG [PYCR3], the protein stability index came to 4.29 ± 0.67 under setting [1] and 4.57 ± 0.11 under setting [2].

PDRGSPEYRQRRERNNIAVRKSRD [CEBPD]: the protein stability index reads like this: under setting [1], 5.03 ± 0.37; under setting [2], 5.35 ± 0.12.

For QQDLERSLQDASRGDPAHAGLAEL [PBXIP1], the protein stability index by setting is: under setting [1], 5.32 ± 0.18; under setting [2], 5.38 ± 0.16.

As to GQTYVDAGYEVDKIAQNLDFVNLM [CHIT1], the protein stability index reads like this: under setting [1], 3.01 ± 0.27; under setting [2], 3.23 ± 0.45.

For LVVAVAAVSCVFLAFVIVLLAHRL [PCDHGA10], the protein stability index runs as follows: under setting [1], 2.9 ± 0.83; under setting [2], 2.83 ± 0.15.

Take PMDSTMDDAVAGDFALINKLDIQC [ATE1]: the protein stability index runs as follows: under setting [1], 4.4 ± 0.26; under setting [2], 4.29 ± 0.24.

As to WNDFLMCYSSRPLLCWSVWWALST [SLC19A2], the protein stability index runs as follows: under setting [1], 3.5 ± 0.3; under setting [2], 3.32 ± 0.46.

For the sequence LTTFQDQLNRRGEFIQEIRRQLEA [OAS1], the protein stability index runs as follows: under setting [1], 3.3 ± 0.35; under setting [2], 3.29 ± 0.27.

On to ALAEGYRYPELDTPKLDCFLSGME [TBX6], for which the protein stability index under setting [1] is 3.2 ± 0.48 and the protein stability index under setting [2] worked out at 3.5 ± 0.19.

In the case of PYFLFQHWATGYSKSSHPLIRSLF [SOAT1], the protein stability index is 2.46 ± 0.51 under setting [1] and 2.34 ± 0.74 under setting [2].

In turn, EGGKLPPPPPPSYDPDYIQCPYCQ [ZC2HC1A] yielded a protein stability index under setting [1] of 4.03 ± 0.3 and a protein stability index under setting [2] of 4.45 ± 0.27.

With SPQPLASSPGPWGLEALAGGDLMP [FCHO1], the protein stability index runs as follows: under setting [1], 4.05 ± 0.093; under setting [2], 4 ± 0.27.

For the sequence HVKKLQQKVATLEKRNRQLRERVK [CCDC3], the protein stability index is 3.72 ± 0.26 under setting [1] and 4 ± 0.61 under setting [2].

On to LPRGATAAVLAPDSSNASSEPSS [SEPHS2], for which the protein stability index was found to be 5.31 ± 0.21 under setting [3] and 5.53 ± 0.17 under setting [4].

With FGSSVPEKQSRCVNIEWHRFRFGQ [WSB1], the protein stability index is, setting by setting: under setting [1], 2.07 ± 0.34; under setting [2], 2.12 ± 0.24.

As for PNPSKVLQQLLVLQPEQQLNIYKT [CDS1], the protein stability index by setting is: under setting [1], 2.38 ± 0.33; under setting [2], 2.44 ± 0.3.

In the case of GQKLVVPGLLGSMALSNHYRSEDL [FBXO3], the protein stability index is 2.92 ± 0.21 under setting [1] and 3.17 ± 0.35 under setting [2].

As to LQSAPDVKGRVRCLTAGPEVAAQL [ZSWIM9], the protein stability index is 3.51 ± 0.28 under setting [1] and 3.6 ± 0.058 under setting [2].

Turning to FLFAKLFSHITSARKARKYEIPHF [PHTF1], the protein stability index reads like this: under setting [1], 3 ± 0.43; under setting [2], 2.79 ± 0.62.

As to DMLLEKLPQVAEEISGPLTSANKI [FLOT1], the protein stability index is, setting by setting: under setting [1], 4.15 ± 0.19; under setting [2], 4.43 ± 0.16.

Consider ICCWSFYGQGRKIAEVCCTSIVYA [KCTD10], for which the protein stability index reads like this: under setting [1], 2.98 ± 0.44; under setting [2], 3.44 ± 0.54.

As to LPFKPFAIILPILLNIRVATKYV [MIA2], the protein stability index runs as follows: under setting [3], 2.42 ± 0.81; under setting [4], 3.36 ± 1.6.

Regarding SYSRGYSYHDGYGEALGRDHSEHL [RBMY1A1], the protein stability index is, setting by setting: under setting [1], 3.5 ± 0.28; under setting [2], 3.38 ± 0.26.

With DEKYSIEPSWECKFDHIEVRDGPF [NETO1], the protein stability index is, setting by setting: under setting [1], 3.78 ± 0.35; under setting [2], 3.9 ± 0.17.

For the sequence YEAIAKHNQVEAAWLEGRIRQEFD [TRIM35], the protein stability index worked out at 3.9 ± 0.25 under setting [1] and 3.85 ± 0.18 under setting [2].

Turning to DFLIHPPERSDLTLYLIVALATVS [PCDHGC5], the protein stability index is, setting by setting: under setting [1], 2.75 ± 0.41; under setting [2], 2.44 ± 0.25.

Take VLVILISIVIFCLETLPEFRDEKD [KCNA3]: the protein stability index under setting [1] amounted to 2.54 ± 0.81 and the protein stability index under setting [2] came to 2.25 ± 0.88.

As for SLLPAQVAACAQTVVSLAAAGQPT [CEBPD], the protein stability index reads like this: under setting [1], 3.24 ± 0.9; under setting [2], 2.9 ± 0.37.

With HVIHIIDFGLAKEYIDPETKKHIP [CSNK1G1], the protein stability index came to 1.99 ± 0.29 under setting [1] and 2.16 ± 0.087 under setting [2].
